Measurements taken from patent publication EP2852397B1.

Experiments:
human Nav1.2 (human) = human Nav1.2 (human) (UniProt Q99250); assay: cell-based or functional assay
human Nav1.7 (human) = human Nav1.7 (human) (UniProt Q15858); assay: cell-based or functional assay

Question: Which results are given for recombinant Huwentoxin-IV (peptide)?
Answer: IC50, veratridine-induced depolarization inhibition assay (human Nav1.2 (human)): 342 nM; IC50, veratridine-induced depolarization inhibition assay (human Nav1.7 (human)): 159 nM; IC50, veratridine-induced depolarization inhibition assay (FRET, FLIPR Tetra) (human Nav1.7 (human)): 160 nM; ratio of IC50 for Nav1.2 to IC50 for Nav1.7 (human Nav1.7 (human)): 2.14
